Results taken from PMC6813330.

Biological target: IbpS (iron-binding protein secreted), translocated region of D. dadantii IbpS (residues 28-372) (Dickeya dadantii 3937)
Experiment: SEC-MALS; Superdex S200 5/150 GL increase; 25 µl IbpS at 10 mg/ml in 50 mM Tris-Cl pH 7.0, 100 mM NaCl

“IbpS (iron-binding protein secreted), translocated region of D. dadantii IbpS (residues 28-372) (natural protein)” showed a stoichiometry N of 2.
